For the assay, the target named is T1, Recombinant human FcγRIIIA variant V [CD16a], Gln17-Gln208 with C-terminal 6-His tag (human, UniProt P08637 17-208).
T1 construct: range 17-208; 'variant V' is given without a position, so no substitution is written; also called h-FcγRIIIA
In words: SPR (Biacore X): h-FcγRIIIA injected over hz515H7VH1D76NVL2 Mab immobilized on a CM4 sensorchip; heterogeneous ligand model, minor component (21%). Here is the method:
1964 RU of hz515H7VH1D76NVL2 Mab were immobilized using the amine coupling kit chemistry on the second flowcell (FC2) of a CM4 sensorchip. The first flowcell (FC1) activated by NHS and EDC mixture and des-activated by ethanolamine served as the reference surface to check and subtract the non specific interaction between the analyte (Fc gamma receptors) and the sensorchip matrix.
The kinetic experiments were carried out at 25° Celsius at a flow rate of 30 μl/min. The HBS-EP buffer was used either as the running buffer or for the preparation of analyte solutions. The analyte solutions were injected during 90 seconds (association phase) with a 90 seconds delay (dissociation phase). An injection of running buffer as analyte was used as a double reference. All the sensorgrams were corrected by this double reference sensorgram.
Sensorgrams obtained with h-FcγRIIIA [FIG. 16] were clearly not fitted by the Langmuïr model (Chi2/Rmax>20%). […] According to this model, the hz515H7VH1D76NVL2 Mab Fc domain may be regarded as a mixture of two components. […] According to the literature, the heterogeneity observed with h-FcγRIIIA was probably linked to the glycosylation heterogeneity on the Mab Fc domain.
A general note: In SPR one partner is held on a chip, and binding of the other changes the refractive index at the surface.

T1 sequence (P08637 other isoform, or with tags, fused parts or gaps mutant limits assumed, form in doubt): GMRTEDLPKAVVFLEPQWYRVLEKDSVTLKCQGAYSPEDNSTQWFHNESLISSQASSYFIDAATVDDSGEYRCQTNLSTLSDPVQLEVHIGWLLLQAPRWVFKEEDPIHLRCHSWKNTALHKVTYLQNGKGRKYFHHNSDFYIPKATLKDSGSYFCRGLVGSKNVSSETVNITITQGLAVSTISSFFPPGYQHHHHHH

B1: humanized antibody Hz515H7 VH1 D76N VL2 (antibody, human IgG1, kappa)
heavy: not shown
light: DIVMTQSPSSLAVSLGERATMSCKSSQSLFNSRTRKNYLAWYQQKPGQSPKLLIYWASARDSGVPARFTGSGSETYFTLTISRVQAEDLAVYYCMQSFNLRTFGQGTKVEIKRTVAAPSVFIFPPSDEQLKSGTASVVCLLNNFYPREAKVQWKVDNALQSGNSQESVTEQDSKDSTYSLSSTLTLSKADYEKHKVYACEVTHQGLSSPVTKSFNRGEC
notes: IgG1/kappa; also called hz515H7VL2; hz515H7-1
The Kd is a measure of binding affinity in units of concentration. As a reminder, the koff is a measure of how fast the partners let go of each other. Broadly, the kon is a measure of how fast the partners come together. In the case of B1, the Kd is 29.3 nM, the koff stood at 0.0155 s⁻¹ and the kon is 529000 M⁻¹ s⁻¹.

Values taken from patent US20140120555A1 (PIERRE FABRE MEDICAMENT, published 2014).
